Broadly, the Ki is a dissociation constant, usually derived from enzyme kinetics or from competition with a known ligand. Low values mean tighter binding, high ones weaker binding.

Bridge positions count the residues as written; N and C are the ends. Square brackets hold non-standard residues; d marks the D form. Ends that are not written are not given here. d1Nal = N[C@H](Cc1cccc2ccccc12)C(=O)O; AllylGly = C=CC[C@H](N)C(=O)O

The target of experiment [1] is T1, YFP-tagged human APJ receptor (human, UniProt P35414 1-380).
T1 construct: whole, on cells; also called hAPJ; APJ WT; not shown: YFP tag
T1 sequence (looked up): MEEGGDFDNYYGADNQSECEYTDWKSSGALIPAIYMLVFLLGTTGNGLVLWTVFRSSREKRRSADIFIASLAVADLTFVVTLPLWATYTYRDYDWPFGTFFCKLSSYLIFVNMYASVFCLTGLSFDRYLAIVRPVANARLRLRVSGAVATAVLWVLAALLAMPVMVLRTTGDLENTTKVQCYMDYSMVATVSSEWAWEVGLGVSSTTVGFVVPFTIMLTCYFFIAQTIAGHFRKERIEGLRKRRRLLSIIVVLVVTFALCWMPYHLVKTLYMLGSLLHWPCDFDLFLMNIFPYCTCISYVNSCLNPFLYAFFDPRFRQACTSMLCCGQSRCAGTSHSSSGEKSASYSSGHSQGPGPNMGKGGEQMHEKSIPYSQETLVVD
The experiment can be described thus: competitive radioligand binding, HEK293-hAPJ membranes.

Experiment [2] addresses human APJ (transfected HEK293 cells, Gαi1 BRET assay) (human) (UniProt P35414). The experiment can be described thus: cell-based or functional assay.
Experiment [3] addresses T2, human APJ (transfected HEK293 cells, Gαi1 BRET assay) (human, UniProt P35414 1-380).
T2 sequence (looked up): T1 sequence (looked up)
The experiment can be described thus: cell-based or functional assay.

Ac-Ape17-Met15Nle (KT03-12) (peptide) registered a Ki in experiment [1] of 0.15 nM. In experiment [2], this molecule showed an EC50 Gαi1 of 2.88 nM.

Consider H-[AllylGly]RLS[AllylGly]KGP[d1Nal] (staple 1-5) [Compound 42 (KT04-43)], for which, in experiment [3], the “Gαi1 Emax (%)” value is 103%. Moreover, the Ki in experiment [1] came out at 0.6 nM.

The record behind these values is patent publication US20240343761A1, “APELINERGIC MACROCYCLES AND USES THEREOF” (priority 2021, published 2024).
